Results taken from patent EP0669979B1 (GENENTECH, INC., dated 2005).

T1: C-C chemokine receptor 1 (C-C CKR-1) (human, UniProt P32246 1-355)
T1 construct: Transiently expressed from pRK5 in human embryonic kidney 293 cells; also called JOSH1; cloned C-C CKR-1
T1 sequence: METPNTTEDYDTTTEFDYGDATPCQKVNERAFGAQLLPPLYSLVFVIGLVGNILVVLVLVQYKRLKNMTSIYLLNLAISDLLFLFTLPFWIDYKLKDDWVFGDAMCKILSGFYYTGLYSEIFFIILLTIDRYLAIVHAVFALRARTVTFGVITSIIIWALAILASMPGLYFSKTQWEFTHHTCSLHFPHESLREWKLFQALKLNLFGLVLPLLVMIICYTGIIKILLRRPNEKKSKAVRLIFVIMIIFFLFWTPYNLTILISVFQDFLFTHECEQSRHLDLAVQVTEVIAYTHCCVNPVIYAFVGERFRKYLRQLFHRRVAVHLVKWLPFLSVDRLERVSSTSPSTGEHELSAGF


Key:
[1] = molecular target: T1, C-C chemokine receptor 1 (C-C CKR-1); test: heterologous displacement of 125I-HuMIP-1α on 293 cells expressing C-C CKR-1, Scatchard analysis
[2] = molecular target: T1, C-C chemokine receptor 1 (C-C CKR-1); test: 125I-HuMIP-1α displaced by unlabeled HuMIP-1α on 293 cells expressing C-C CKR-1, 4 °C, Scatchard analysis
[3] = molecular target: T1, C-C chemokine receptor 1 (C-C CKR-1); test: heterologous displacement of 125I-RANTES by unlabeled HuMIP-1α on 293 cells expressing C-C CKR-1, Scatchard analysis

| Binder | Kd [1] [nM] | Kd [2] [nM] | Kd [3] [nM] |
| --- | --- | --- | --- |
| RANTES (Regulated on Activation, Normal T Expressed and Secreted) (ligand, UniProt P13501 24-91, looked up, ends and bridges not checked; also: 125I-labeled where used as tracer) SPYSSDTTPCCFAYIARPLPRAHIKEYFYTSGKCSNPAVVFVTRKNRQVCANPEKKWVREYINSLEMS | 468 |  |  |
| murine MIP-1α (ligand, UniProt P10855 24-92, looked up) APYGADTPTACCFSYSRKIPRQFIVDYFETSSLCSQPGVIFLTKRNRQICADSKETWVQEYITDLELNA | 4.2 |  |  |
| human MIP-1β (HuMIP-1β) (ligand, UniProt P13236 24-92, looked up, also called HuMIP-1b; MIP-lb) APMGSDPPTACCFSYTARKLPRNFVVDYYETSSLCSQPAVVFQTKRSKQVCADPSESWVQEYVYDLELN | 232 |  |  |
| human MIP-1α (HuMIP-1α) (ligand, UniProt P10147 24-92, looked up, ends and bridges not checked; also: 125I-iodinated (chloroglycoluril) where used as tracer, also called HuMIP-1a) SLAADTPTACCFSYTSRQIPQNFIADYFETSSQCSKPGVIFLTKRSRQVCADPSEEWVQKYVSDLELSA |  | 5.1 | 7.6 |
